The text below walks through data of PMC6797610, “Functional Analysis of 3-Dehydroquinate Dehydratase/Shikimate Dehydrogenases Involved in Shikimate Pathway in Camellia sinensis” (Frontiers in Plant Science, 2019).

The target of data set [1] is CsDQD/SDHb (Camellia sinensis, UniProt A0A3G3BK08, G296T/D398N/I399R/D400T, form not given). As to the kind of experiment: HPLC product quantification. It counts as biochemical. The settings on record: MTCsDQD/SDHb; SA oxidation with NADP+; residue numbers after AtDQD/SDH.
The next data set concerns the target T1, CsSDHa (Camellia sinensis, UniProt A0A3G3BK14).
T1 construct: SDH unit only of CsDQD/SDHa (Ile-328 to Gly-588 in AtSDH numbering), MBP fusion from pMAL-c2x, E. coli
The data set is described as follows: HPLC product quantification. In kind it is biochemical. Particulars: 1 mM each, BTP-HCl pH 7.5, 30°C.

The target of data set [2] is CsDQD/SDHb (Camellia sinensis, UniProt A0A3G3BK08). As to the kind of experiment: HPLC product quantification. It counts as biochemical. The settings on record: SA oxidation, 1 mM SA, 1 mM NADP+; BTP-HCl pH 7.5, 30°C, 30 min; very low activity, Km not determinable.
Substrate in data set [3]: NC(=O)C1=CN([C@@H]2O[C@H](COP(=O)(O)OP(=O)(O)OC[C@H]3O[C@@H](n4cnc5c(N)ncnc54)[C@H](OP(=O)(O)O)[C@@H]3O)[C@@H](O)[C@H]2O)C=CC1
As to the kind of experiment: HPLC product assay, Michaelis-Menten. In kind it is biochemical, Camellia sinensis. The settings on record: 3-DHS reduction to SA, co-substrate 3-DHS 1.5 mM, BTP-HCl pH 8.5, 30°C, 3 min. An excerpt: (§1) HPLC product assay, Michaelis-Menten on CsDQD/SDHc

Substrate in data set [4]: NC(=O)c1ccc[n+]([C@@H]2O[C@H](COP(=O)(O)OP(=O)(O)OC[C@H]3O[C@@H](n4cnc5c(N)ncnc54)[C@H](OP(=O)(O)O)[C@@H]3O)[C@@H](O)[C@H]2O)c1
The data set is described as follows: HPLC product assay, Michaelis-Menten. The settings on record: SA oxidation to 3-DHS, co-substrate SA 1.5 mM, BTP-HCl pH 8.5, 30°C, 3 min. It counts as biochemical, Camellia sinensis.
Description: as §1

Substrate in data set [5]: O=C(O)C1=CC(=O)[C@@H](O)[C@H](O)C1
As to the kind of experiment: HPLC product assay, Michaelis-Menten. Particulars: 3-DHS reduction to SA, co-substrate NADPH 1.5 mM, BTP-HCl pH 8.5, 30°C, 3 min. In kind it is biochemical, Camellia sinensis.
Description: as §1

Substrate in data set [6]: O=C(O)C1=C[C@@H](O)[C@@H](O)[C@H](O)C1
As to the kind of experiment: HPLC product assay, Michaelis-Menten. It counts as biochemical, Camellia sinensis. The settings on record: SA oxidation to 3-DHS, co-substrate NADP+ 1.5 mM, BTP-HCl pH 8.5, 30°C, 3 min.
Description: as §1

Substrate in data set [7]: NC(=O)C1=CN([C@@H]2O[C@H](COP(=O)(O)OP(=O)(O)OC[C@H]3O[C@@H](n4cnc5c(N)ncnc54)[C@H](OP(=O)(O)O)[C@@H]3O)[C@@H](O)[C@H]2O)C=CC1
The data set is described as follows: HPLC product assay, Michaelis-Menten. It counts as biochemical, Camellia sinensis. Particulars: 3-DHS reduction to SA, co-substrate 3-DHS 1.5 mM, BTP-HCl pH 8.5, 30°C, 3 min. From the text:
(§2) HPLC product assay, Michaelis-Menten on CsDQD/SDHd
The source holds these as a separate data set.

Substrate in data set [8]: NC(=O)c1ccc[n+]([C@@H]2O[C@H](COP(=O)(O)OP(=O)(O)OC[C@H]3O[C@@H](n4cnc5c(N)ncnc54)[C@H](OP(=O)(O)O)[C@@H]3O)[C@@H](O)[C@H]2O)c1
As to the kind of experiment: HPLC product assay, Michaelis-Menten. In kind it is biochemical, Camellia sinensis. The settings on record: SA oxidation to 3-DHS, co-substrate SA 1.5 mM, BTP-HCl pH 8.5, 30°C, 3 min.
Description: as §2
The source holds these as a separate data set.

Substrate in data set [9]: O=C(O)C1=CC(=O)[C@@H](O)[C@H](O)C1
The data set is described as follows: HPLC product assay, Michaelis-Menten. In kind it is biochemical, Camellia sinensis. Particulars: 3-DHS reduction to SA, co-substrate NADPH 1.5 mM, BTP-HCl pH 8.5, 30°C, 3 min.
Description: as §2
The source holds these as a separate data set.

Substrate in data set [10]: O=C(O)C1=C[C@@H](O)[C@@H](O)[C@H](O)C1
As to the kind of experiment: HPLC product assay, Michaelis-Menten. The settings on record: SA oxidation to 3-DHS, co-substrate NADP+ 1.5 mM, BTP-HCl pH 8.5, 30°C, 3 min. It counts as biochemical, Camellia sinensis.
Description: as §2
This is another data set of the same source.

Substrate in data set [11]: NC(=O)C1=CN([C@@H]2O[C@H](COP(=O)(O)OP(=O)(O)OC[C@H]3O[C@@H](n4cnc5c(N)ncnc54)[C@H](OP(=O)(O)O)[C@@H]3O)[C@@H](O)[C@H]2O)C=CC1
As to the kind of experiment: HPLC product assay, Michaelis-Menten. It counts as biochemical, Camellia sinensis. The settings on record: 3-DHS reduction to SA, co-substrate 3-DHS 1.5 mM, BTP-HCl pH 8.5, 30°C, 3 min. An excerpt:
(§3) HPLC product assay, Michaelis-Menten on CsDQD/SDHa
The source holds these as a separate data set.

Substrate in data set [12]: NC(=O)c1ccc[n+]([C@@H]2O[C@H](COP(=O)(O)OP(=O)(O)OC[C@H]3O[C@@H](n4cnc5c(N)ncnc54)[C@H](OP(=O)(O)O)[C@@H]3O)[C@@H](O)[C@H]2O)c1
The data set is described as follows: HPLC product assay, Michaelis-Menten. It counts as biochemical, Camellia sinensis. Particulars: SA oxidation to 3-DHS, co-substrate SA 1.5 mM, BTP-HCl pH 8.5, 30°C, 3 min.
Description: as §3
The source holds these as a separate data set.

Substrate in data set [13]: O=C(O)C1=CC(=O)[C@@H](O)[C@H](O)C1
As to the kind of experiment: HPLC product assay, Michaelis-Menten. The settings on record: 3-DHS reduction to SA, co-substrate NADPH (per table; b27 pairs the cofactors the other way round), 1.5 mM, BTP-HCl pH 8.5, 30°C, 3 min. In kind it is biochemical, Camellia sinensis.
Description: as §3

Substrate in data set [14]: O=C(O)C1=C[C@@H](O)[C@@H](O)[C@H](O)C1
As to the kind of experiment: HPLC product assay, Michaelis-Menten. Particulars: SA oxidation to 3-DHS, co-substrate NADP+ (per table; b27 pairs the cofactors the other way round), 1.5 mM, BTP-HCl pH 8.5, 30°C, 3 min. In kind it is biochemical, Camellia sinensis.
Description: as §3

Chain of CsDQD/SDHb (Camellia sinensis, UniProt A0A3G3BK08, G296T/D398N/I399R/D400T, form not given) (A0A3G3BK08 entry or part of it G296T/D398N/I399R/D400T, form open): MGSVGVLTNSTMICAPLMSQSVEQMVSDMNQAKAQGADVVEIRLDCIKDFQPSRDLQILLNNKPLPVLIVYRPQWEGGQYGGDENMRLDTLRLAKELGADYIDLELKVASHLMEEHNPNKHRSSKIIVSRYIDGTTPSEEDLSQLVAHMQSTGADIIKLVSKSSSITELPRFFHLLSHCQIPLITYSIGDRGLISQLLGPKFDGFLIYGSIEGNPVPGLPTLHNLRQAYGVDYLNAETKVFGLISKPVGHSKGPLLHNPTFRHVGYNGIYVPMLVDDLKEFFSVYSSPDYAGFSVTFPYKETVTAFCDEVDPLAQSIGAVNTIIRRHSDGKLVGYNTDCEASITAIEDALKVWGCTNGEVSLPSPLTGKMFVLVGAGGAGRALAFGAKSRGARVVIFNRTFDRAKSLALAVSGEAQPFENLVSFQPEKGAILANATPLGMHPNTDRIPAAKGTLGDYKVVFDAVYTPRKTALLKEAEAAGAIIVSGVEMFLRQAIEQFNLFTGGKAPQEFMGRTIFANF
Chain of CsDQD/SDHb (Camellia sinensis, UniProt A0A3G3BK08) (A0A3G3BK08 entry or part of it): as the sequence (A0A3G3BK08 entry or part of it G296T/D398N/I399R/D400T, form open) above, with T296G, N398D, R399I, T400D counted along it

Consider `O=C(O)C1=C[C@@H](O)[C@@H](O)[C@H](O)C1` [SA], for which the HPLC product quantification result was “six times higher oxidation activity of SA than CsDQD/SDHb” on CsDQD/SDHb [1], “a lower enzymatic activity for NADP^+-dependent oxidation of SA” at CsSDHa (SA oxidation with NADP+) and “CsDQD/SDHb exhibited the lowest SA oxidation activity but had no 3-DHS reduction activity” at CsDQD/SDHb [2].

As for `O=C(O)C1=CC(=O)[C@@H](O)[C@H](O)C1` [3-DHS], the HPLC product quantification entry on CsSDHa (3-DHS reduction with NADPH) is reported as “CsSDHa recombinant protein had an almost identical enzymatic activity for NADPH-dependent reduction of 3-DHS”.

B1: CsDQD/SDHc (Camellia sinensis) (protein)
chain: MASGSFSFATSDVQTSSSGVRSGPTLLCTPLIGTTVDQMLIDMRKAKEIGADMVEIRLDCLREFNPRPDLQILIKQSPLPTLVTYRPIWESGQYEGDENKRQDALRLAMELGADYIDVELQVAQEFNNSISAKKPEKFKVIVSSQNFHSTPSAEAIGNLVARIQATGADIVKIVTTALDITDVARIFQITVHSQIPMIGIAMGERGLISRLLSPKFNGYLTYAALEAGAISAPGQPTVKDLLDLYNFRLIRPDTKVYGIIGKPVGHSKSPLLFNESFKKVGLNSVYVHLLVDDVKKFFSTYSSVDFAGFSCTIPHKEVALECMDEIDQIAKKIGAINNIVRRPDGTLKSYNTDYIGAISAIEDGLRESNGSSPATSSPLAGKLFVVLGAGGAGKSLAYGAQQKGARVVVANRTFERAKELAEKVGGKALTLEEVNDFHPEEGMILANTTSVGMKPNIDLTPISKEALKHYDLVFDAIYTPKDTRLLREARECGKIIVYGTEMLIRQGFEQYKNFTGLQAPEELFRELMSRHA
Consider B1, for which the Km in data set [3] came out at 267.244 µM; in data set [4] it was 114.553 µM; in [5], 330.933 µM; in data set [6], 199.653 µM. Besides, the kcat/Km in data set [3] was 193 M⁻¹ s⁻¹; in data set [4], 372 M⁻¹ s⁻¹; in [5], 507 M⁻¹ s⁻¹; in data set [6], 536 M⁻¹ s⁻¹.

B2: CsDQD/SDHd (Camellia sinensis) (protein)
chain: MTLSSIPISEGGRRNPTMICAPVMAENVDQMLLMMRKAKELGADLVEVRIDYLKNFSPHHDLQILIKQCPLPTLITYRPTWEGGQFDGDETRRQAALRQAVELGADYIDIELKVADEFYKLIQGKKPEKVKIIVSSHNYENTPSAEEIGNLAARIQATGADIVKIATTAQDITDSARIFQLLAHSQVPTIGIVMGERGLMSRILCAKFGGFLTFGALESGIVSAPGQPTLKDLLELYNFRQIGPDTKVHGVIGNPIGHSKSPHLYNTAFRSAGFNGIYLPLLVDSVANFFNTYSSPDFVGYSYTIPHKEAGLKCCDEVDPIAEAIGAISCMVRKPSDGKLIGYNVDYLGAIGAIEEALGGSNGSSNGAVSPLASKLFVVIGAGGAGKALAYGGKEKGARVVVANRTYEKAKELASKVDGEAITLAELDDFHPEDGMILANTTSVGMKPKTDATPISKKALNRYSLVFGAIYTPKWTRLLQEAQDSGAKVVFGTEMFINQAFVQFERFTGMPAPKELIRETLAKNT
Consider B2, for which the Km in data set [7] amounted to 248.798 µM; in [8], 46.342 µM; in data set [9], 465.971 µM; in data set [10], 610.643 µM. The kcat/Km stood at 197 M⁻¹ s⁻¹ in [7], 128 M⁻¹ s⁻¹ in [8], 99.5 M⁻¹ s⁻¹ in data set [9] and 138 M⁻¹ s⁻¹ in data set [10].

B3: CsDQD/SDHa (Camellia sinensis) (protein)
chain: MELVAPVVAGCGVKMESEGMRKNSTLICVPLMADSVDQMLIYMNKAKLNGADLVEVRLDSLKSFNPPLDIETLIKRCPLPTLFTYRPKWEGGMYDGDESSRLEALQLAMELGADYIDVELQVIHEFNSSMHGKKPAKCKLIVSSHNYENTPSVEDLGNLVVKIQATGADIVKIATTALDITDAARVFQITVHSQVRGVPIIAMVMGERGLMARILCPKFGGYLTFGTLESGIVSAPGQPTMDDLVNLYNIRQIGPDTKVFGIIGKPVGHSKSPILYNEAFKKVGFNGVYLHLLVDDVANFLQTYSSTDFAGFSCTIPHKEAALKCCDEVDPVAKSIGAVNCIVRKSDGKFFGCNTDYVGAITAIEDALGGLQHVNGMVVSPLSGKLFVVIGAGGAGKALAYGAKAKGAKVVIANRTYERAKEIADTIGGDALSLADLSNFHPEDGMILANTTSIGMQPKVDETPVPKQALKSYALVFDAVYTPKITRLLREAEESGAKIVTGVEMFIGQAYEQFERFTGLPAPKELFGKIMAKY
In the case of B3, the Km in data set [11] was 270.306 µM; in [12] it was 138.031 µM; in [13] it was 286.576 µM; in data set [14] it was 272.782 µM. Moreover, the kcat/Km turned out to be 746 M⁻¹ s⁻¹ in data set [11], 845 M⁻¹ s⁻¹ in [12], 1410 M⁻¹ s⁻¹ in data set [13] and 562 M⁻¹ s⁻¹ in [14].

For orientation: Km means the concentration of substrate that gives half-maximal velocity. The term kcat/Km denotes the turnover number divided by the Michaelis constant.
